This is an account of results in patent US20240016931A1 (JIANGSU HENGRUI PHARMACEUTICALS, published 2024).

Assay [1] has as its target T1, Fc-tagged human TSLP antigen (huTSLP-Fc) (human, biotin-labeled in the blocking assays).
T1 construct: whole entry named; also called recombinant human TSLP-Fc
As to the kind of experiment: competition ELISA: blocks TSLP binding to TSLP receptor. For orientation: ELISA stands for enzyme-linked immunosorbent assay.

For assay [2], the target named is T2, His-tagged human TSLP antigen (huTSLP-his) (human).
T2 construct: Secreted from HEK293E and purified on nickel; whole entry named; also called Human TSLP-his
As to the kind of experiment: ELISA, coated huTSLP-his.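 Further: binding of antibodies to plate-bound TSLP read as absorbance at 450 nm after TMB colour development, EC50 derived from binding curves.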

As usually defined, the IC50 is the concentration needed to halve the response being measured. What is called EC50 is the midpoint of the concentration-response curve. Low readings indicate greater potency, high ones weaker potency.

B1: hu199-08 (antibody, human IgG1, kappa, V domains shown)
VH: EVQLVQSGAEVKKPGASVKVSCKASGYTFTTYWMHWVRQAPGQGLEWMGMIDPSDSETTLIQKFKDRVTLTVDKSTSTAYMELSSLRSEDTAVYYCARTLDGYYDYWGQGTTVTVSS
VL: DIQMTQSPSSLSASVGDRVTITCRASENIYSYLAWYQQKPGKAPKLLVYFAKTLAEGVPSRFSGSGSGTDFTLTISSLQPEDFATYYCQHHYGTPWTFGGGTKVEIKR
notes: IgG1-YTE, kappa
With B1, in assay [1], the half-inhibitory concentration (IC50) stood at 0.283 nM.

B2: hu199-05 (antibody, human IgG1, kappa, V domains shown)
VH: EVQLVQSGAEVKKPGASVKVSCKASGYTFTTYWMHWVRQAPGQGLEWMGMIDPSDSETTLIQKFKDRVTMTVDKSTSTAYMELSSLRSEDTAVYYCARTLDGYYDYWGQGTTVTVSS
VL: DIQMTQSPSSLSASVGDRVTITCRASENIYSYLAWYQQKPGKAPKLLVYFAKTLAEGVPSRFSGSVSGTDFTLTISSLQPEDFATYYCQHHYGTPWTFGGGTKVEIKR
notes: IgG1-YTE, kappa
Molecule B2 displayed a concentration for half-maximal inhibition (IC50) in assay [1] of 0.473 nM.

B3: hu199-01 (antibody, human IgG1, kappa, V domains shown)
VH: EVQLVQSGAEVKKPGASVKVSCKASGYTFTTYWMHWVRQAPGQGLEWMGMIDPSDSETTLIQKFKDRVTMTVDKSTSTAYMELSSLRSEDTAVYYCARTLDGYYDYWGQGTTVTVSS
VL: DIQMTQSPSSLSASVGDRVTITCRASENIYSYLAWYQQKPGKAPKLLIYFAKTLAEGVPSRFSGSGSGTDFTLTISSLQPEDFATYYCQHHYGTPWTFGGGTKVEIKR
notes: IgG1-YTE, kappa
The molecule B3 registered an IC50 in assay [1] of 0.191 nM.

B4: hu199-03 (antibody, human IgG1, kappa, V domains shown)
VH: EVQLVQSGAEVKKPGASVKVSCKASGYTFTTYWMHWVRQAPGQGLEWMGMIDPSDSETTLIQKFKDRVTMTVDKSTSTAYMELSSLRSEDTAVYYCARTLDGYYDYWGQGTTVTVSS
VL: DIQMTQSPSSLSASVGDRVTITCRASENIYSYLAWYQQKPGKSPQLLVYFAKTLAEGVPSRFSGSGSGTQFTLTISSLQPEDFATYYCQHHYGTPWTFGGGTKVEIKR
notes: IgG1-YTE, kappa
B4 gave an IC50 in assay [1] of 0.208 nM.

B5: hu199-04 (antibody, human IgG1, kappa, V domains shown)
VH: EVQLVQSGAEVKKPGASVKVSCKASGYTFTTYWMHWVRQAPGQGLEWMGMIDPSDSETTLIQKFKDRVTMTVDKSTSTAYMELSSLRSEDTAVYYCARTLDGYYDYWGQGTTVTVSS
VL: DIQMTQSPSSLSASVGDRVTITCRASENIYSYLAWYQQKPGKAPKLLIYFAKTLAEGVPSRFSGSVSGTDFTLTISSLQPEDFATYYCQHHYGTPWTFGGGTKVEIKR
notes: IgG1-YTE, kappa
In the case of B5, the 50% inhibitory concentration (IC50) in assay [1] is 0.424 nM.

B6: hu199-02 (antibody, human IgG1, kappa, V domains shown)
VH: EVQLVQSGAEVKKPGASVKVSCKASGYTFTTYWMHWVRQAPGQGLEWMGMIDPSDSETTLIQKFKDRVTMTVDKSTSTAYMELSSLRSEDTAVYYCARTLDGYYDYWGQGTTVTVSS
VL: DIQMTQSPSSLSASVGDRVTITCRASENIYSYLAWYQQKPGKAPKLLVYFAKTLAEGVPSRFSGSGSGTDFTLTISSLQPEDFATYYCQHHYGTPWTFGGGTKVEIKR
notes: IgG1-YTE, kappa
Molecule B6 returned an IC50 in assay [1] of 0.219 nM.

B7: hu179-24 (antibody, human IgG1, kappa, V domains shown)
VH: EVQLVQSGAEVKKPGSSVKVSCKASGGTFSNYLIEWVRQAPGQGLEWMGVIDPGNGDTNYNENFKGRVTITADKSTSTAYMELSSLRSEDTAVYYCAREDNTGTAFDYWGQGTTVTVSS
VL: DIVMTQSPDSLAVSLGERATINCKASQSVSSDVTWYQQKPGQSPKLLIYYVSNYYTGVPDRFSGSGSGTDFTLTISSLQAEDVAVYYCQQHHRFPLTFGQGTKLEIKR
notes: IgG1-YTE, kappa
For the molecule B7, the 50% effective concentration (EC50) in assay [2] was 0.636 nM.

B8: hu179-25 (antibody, human IgG1, kappa, V domains shown)
VH: EVQLVQSGAEVKKPGSSVKVSCKASGYTFSNYLIEWVRQAPGQGLEWIGVIDPGNGDTNYNENFKGRATLTADKSTSTAYIELSSLRSEDTAVYYCAREDNTGTAFDYWGQGTTVTVSS
VL: DIVMTQSPDSLAVSLGERATINCKASQSVSSDVTWYQQKPGQSPKLLIYEVSNHYTGVPDRFSGSGSGTDFTLTISSLQAEDVAVYYCQQHHRFPLTFGQGTKLEIKR
notes: IgG1-YTE, kappa
Regarding B8, the midpoint of the response in assay [2], the EC50, lay at 0.131 nM.

B9: hu179-32 (antibody, human IgG1, kappa, V domains shown)
VH: EVQLVQSGAEVKKPGSSVKVSCKASGYTFSNYLIEWVRQAPGQGLEWIGVIDPGNGDTNYNENFKGRATLTADKSTSTAYIELSSLRSEDTAVYYCAREDNTGTAFDYWGQGTTVTVSS
VL: DIVMTQSPDSLAVSLGERATINCKASQSVSSDVTWYQQKPGQSPKLLIYYVSNHETGVPDRFSGSGSGTDFTLTISSLQAEDVAVYYCQQHHRFPLTFGQGTKLEIKR
notes: IgG1-YTE, kappa
With B9, in assay [2], the concentration for a half-maximal effect (EC50) turned out to be 0.145 nM.

B10: hu179-26 (antibody, human IgG1, kappa, V domains shown)
VH: EVQLVQSGAEVKKPGSSVKVSCKASGYTFSNYLIEWVRQAPGQGLEWIGVIDPGNGDTNYNENFKGRATLTADKSTSTAYIELSSLRSEDTAVYYCAREDNTGTAFDYWGQGTTVTVSS
VL: DIVMTQSPDSLAVSLGERATINCKASQSVSSDVTWYQQKPGQSPKLLIYYVDNHYTGVPDRFSGSGSGTDFTLTISSLQAEDVAVYYCQQHHRFPLTFGQGTKLEIKR
notes: IgG1-YTE, kappa
B10 showed an EC50 in assay [2] of 0.201 nM.

B11: hu179-29 (antibody, human IgG1, kappa, V domains shown)
VH: EVQLVQSGAEVKKPGSSVKVSCKASGYTFSNYLIEWVRQAPGQGLEWIGVIDPGNGDTNYNENFKGRATLTADKSTSTAYIELSSLRSEDTAVYYCAREDNTGTAFDYWGQGTTVTVSS
VL: DIVMTQSPDSLAVSLGERATINCKASQSVSSDVTWYQQKPGQSPKLLIYYVSEHYTGVPDRFSGSGSGTDFTLTISSLQAEDVAVYYCQQHHRFPLTFGQGTKLEIKR
notes: IgG1-YTE, kappa
Molecule B11 returned an EC50 in assay [2] of 0.204 nM.

B12: hu179-31 (antibody, human IgG1, kappa, V domains shown)
VH: EVQLVQSGAEVKKPGSSVKVSCKASGYTFSNYLIEWVRQAPGQGLEWIGVIDPGNGDTNYNENFKGRATLTADKSTSTAYIELSSLRSEDTAVYYCAREDNTGTAFDYWGQGTTVTVSS
VL: DIVMTQSPDSLAVSLGERATINCKASQSVSSDVTWYQQKPGQSPKLLIYYVSNEYTGVPDRFSGSGSGTDFTLTISSLQAEDVAVYYCQQHHRFPLTFGQGTKLEIKR
notes: IgG1-YTE, kappa
With B12, a half-maximal response in assay [2] (EC50) required 0.201 nM.

B13: hu179-27 (antibody, human IgG1, kappa, V domains shown)
VH: EVQLVQSGAEVKKPGSSVKVSCKASGYTFSNYLIEWVRQAPGQGLEWIGVIDPGNGDTNYNENFKGRATLTADKSTSTAYIELSSLRSEDTAVYYCAREDNTGTAFDYWGQGTTVTVSS
VL: DIVMTQSPDSLAVSLGERATINCKASQSVSSDVTWYQQKPGQSPKLLIYYVENHYTGVPDRFSGSGSGTDFTLTISSLQAEDVAVYYCQQHHRFPLTFGQGTKLEIKR
notes: IgG1-YTE, kappa
B13: in assay [2], the half-maximal effective concentration (EC50) was 0.18 nM.

B14: hu179-28 (antibody, human IgG1, kappa, V domains shown)
VH: EVQLVQSGAEVKKPGSSVKVSCKASGYTFSNYLIEWVRQAPGQGLEWIGVIDPGNGDTNYNENFKGRATLTADKSTSTAYIELSSLRSEDTAVYYCAREDNTGTAFDYWGQGTTVTVSS
VL: DIVMTQSPDSLAVSLGERATINCKASQSVSSDVTWYQQKPGQSPKLLIYYVSQHYTGVPDRFSGSGSGTDFTLTISSLQAEDVAVYYCQQHHRFPLTFGQGTKLEIKR
notes: IgG1-YTE, kappa
Regarding B14, the half-maximal effective concentration (EC50) in assay [2] is 0.0906 nM.

B15: hu179-30 (antibody, human IgG1, kappa, V domains shown)
VH: EVQLVQSGAEVKKPGSSVKVSCKASGYTFSNYLIEWVRQAPGQGLEWIGVIDPGNGDTNYNENFKGRATLTADKSTSTAYIELSSLRSEDTAVYYCAREDNTGTAFDYWGQGTTVTVSS
VL: DIVMTQSPDSLAVSLGERATINCKASQSVSSDVTWYQQKPGQSPKLLIYYVSNDYTGVPDRFSGSGSGTDFTLTISSLQAEDVAVYYCQQHHRFPLTFGQGTKLEIKR
notes: IgG1-YTE, kappa
In assay [2], B15 gave an EC50 of 0.246 nM.
